Results as given in the supplement of paper PMC10567573.

B1: CHCHD3 (parent)
chain: YSGAYGASVSDEELKRRVAEELAL
B2: VPS39 (parent)
chain: TTLLKCYLHTNVALVAPLLRLENN

Variants of: B1
Assay: protein stability index of a GFP-peptide fusion (GPS, HEK-293T) (PSI 1-6); higher = more stable
Settings: c terminus: a fixed tail appended
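Also: lentivirally expressed fusions sorted by FACS into six bins by GFP to DsRed ratio, PSI derived from sequencing read proportions per bin multiplied by bin number.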

Protein stability index, by site and new letter:
A23: Y 2.7 | K 2.71 | E 2.86 | C 3.08 | V 2.55 | Q 2.58 | I 2.52 | M 2.65 | P 3.31 | H 2.71 | T 3.13 | L 2.72 | D 2.76 | G 3.02 | S 2.19 | R 2.26 | N 2.97 | F 2.97 | W 2.87
A19: V 3.43 | P 3.04 | S 2.05 | M 3.43 | H 3.24 | T 1.94 | K 2.47 | L 3.05 | W 2.69 | Y 2.27 | I 2.49 | D 2.84 | Q 2.56 | C 2.67 | R 2.95 | G 3.1 | F 2.54 | E 3.04 | N 3.53
K15: D 3.38 | P 2.29 | N 2.19 | F 2.11 | V 2.65 | G 2.58 | S 3.47 | H 2.69 | L 2.52 | E 3.33 | I 2.5 | T 2.22 | C 3.2 | Q 2.83 | Y 2.72 | R 2.84 | A 2.99 | W 2.04 | M 2.61
R17: Y 2.33 | D 2.54 | G 2.36 | F 2.12 | H 2.4 | A 2.57 | C 2.06 | K 2.31 | M 1.94 | T 2.53 | W 2.38 | P 2.64 | I 2.4 | N 2.61 | S 2.52 | E 3.17 | L 2.76 | Q 2.77 | V 2.63
S10: P 2.6 | H 2.98 | V 2.92 | L 2.8 | M 2.86 | N 2.4 | R 2.66 | G 2.51 | Q 2.72 | I 2.69 | T 2.71 | F 2.64 | D 3.35 | K 2.46 | Y 2.14 | W 1.89 | E 3.58
V9: Q 3.18 | G 3.06 | N 3.35 | P 3.13 | R 2.19 | K 2.57 | E 4.28 | F 2.67 | Y 1.94 | M 2.7 | S 3.07 | T 2.19 | I 2.95 | W 2.71 | H 2.77 | A 3.3
L24: P 2.27 | T 2.48 | V 2.37 | G 2.96 | E 2.92 | I 2.46 | R 2.52 | D 2.52 | F 1.77 | C 2.79 | Q 2.63 | W 2.33 | M 2.74 | Y 2.5 | S 2.31 | K 2.87 | H 2.31 | A 2.62 | N 2.54
E13: L 2.85 | P 2.47 | W 2.56 | M 1.51 | H 2.67 | K 3.04 | I 2.2 | C 2.33 | T 2.66 | G 2.18 | Q 2.3 | D 2.9 | S 2.26 | N 2.44 | V 2.38 | R 2.26 | A 2.61 | F 2.49 | Y 1.76
E12: R 2.59 | D 2.99 | Q 2.09 | S 2.09 | F 2.09 | P 3.73 | V 2.37 | H 2.24 | L 2.17 | G 1.82 | K 2.53 | M 2.39 | A 2.29 | Y 3.02 | T 2.71 | I 2.92 | C 2.2 | W 3.11 | N 2.4
L22: Y 1.94 | M 2.87 | T 3.26 | N 3.21 | F 1.59 | V 3.58 | E 2.7 | R 3.32 | A 2.5 | K 2.19 | W 1.89 | Q 2.77 | D 2.75 | C 2.57 | G 2.33 | I 2.7 | H 2.05 | P 2.47 | S 2.4
E20: Q 2.68 | K 2.9 | N 2.15 | D 3.01 | Y 2.27 | F 1.99 | A 2.19 | I 2.4 | G 1.58 | S 3.03 | H 2.59 | L 2.22 | T 2.26 | W 1.85 | R 2.49 | C 2.48 | M 2.16 | P 2.49 | V 1.57
V18: A 2.42 | N 2.73 | D 2.54 | Y 2.09 | I 2.86 | M 2.09 | W 2.35 | Q 1.72 | C 2.76 | P 2.58 | R 2.44 | F 2.64 | H 2.75 | K 2.38 | S 2.42 | L 2.93 | E 2.59 | T 2.39
R16: E 2.46 | M 2.74 | H 2.45 | S 1.95 | G 2.92 | C 1.92 | L 2.75 | Y 2.19 | Q 2.64 | A 2.34 | V 2.17 | W 2.54 | D 3.66 | I 2.11 | K 2.65 | F 2.3 | N 2.65 | T 3.04 | P 2.55
E21: Y 2.45 | T 2.33 | W 2.62 | M 3.14 | P 3.47 | Q 3.05 | K 2.88 | A 2.94 | H 2.44 | S 3.57 | C 3.9 | G 3.32 | R 2.89 | F 2.44 | N 2.9 | D 2.45 | I 2.12 | V 2.19 | L 2.87
L14: N 2.47 | F 2.53 | T 3.12 | S 2.31 | E 3.48 | M 2.19 | C 2.77 | A 1.78 | R 2.25 | I 2.41 | V 2.63 | K 2.94 | W 2.34 | G 3.46 | Y 3.56 | H 2.79 | D 3.3 | P 2.24
D11: I 2.29 | P 1.7 | G 2.01 | T 2.24 | H 2.08 | K 2.49 | R 2.24 | S 1.86 | E 1.55 | L 2.57 | N 2.37 | C 2.39 | Q 2.34 | W 2.31 | V 3.23 | F 2.27 | M 3.01 | A 2.79

Variants of: B2
Assay: as above
Settings: c terminus: a fixed tail appended

Protein stability index: each site, then its substitutions
T2: Q 2.1 | A 1.61 | R 2.85 | L 3.5
L3: N 3.03 | Y 3.01 | W 3.19 | A 3.88 | Q 3.31 | D 2.22 | G 1.84 | R 2.57 | P 1.96 | K 2.1 | I 2.18 | T 2.58
L4: S 3.47 | K 2.01 | P 1.74 | D 1.35 | N 1.25 | R 2.48 | H 2.36 | M 3.92 | T 2.83 | F 3.81 | Q 1.92 | W 1.78 | G 3.33 | V 3.82
K5: F 1.07 | E 2.22
T1: C 1.07 | A 3.76 | K 3.52 | M 2.75 | I 2.46 | Y 3.27
